Starred links: 1 amine or outer side, 2 acyl side, 3 side chain; linkers in the order of their positions; H or OH if unused. Positions of bridges follow the written chain, without caps; N, C: chain ends. *: point of attachment. X1 = (S)‑4‑Carboxy‑4‑(19-carboxynonadecanoylamino)butyryl, O=C(O)CCCCCCCCCCCCCCCCCCC(=O)N[C@@H](CCC(=O)*)C(=O)O; C20 diacid = O=C(O)CCCCCCCCCCCCCCCCCCC(=O)*; γGlu = O=C(O)[C@H](CCC(=O)[*:2])N[*:1]
T1: human amylin 3(a) receptor (human calcitonin receptor + RAMP-3) (human, UniProt P30988 25-474; O60896 24-148)
T1 sequence (looked up) 1: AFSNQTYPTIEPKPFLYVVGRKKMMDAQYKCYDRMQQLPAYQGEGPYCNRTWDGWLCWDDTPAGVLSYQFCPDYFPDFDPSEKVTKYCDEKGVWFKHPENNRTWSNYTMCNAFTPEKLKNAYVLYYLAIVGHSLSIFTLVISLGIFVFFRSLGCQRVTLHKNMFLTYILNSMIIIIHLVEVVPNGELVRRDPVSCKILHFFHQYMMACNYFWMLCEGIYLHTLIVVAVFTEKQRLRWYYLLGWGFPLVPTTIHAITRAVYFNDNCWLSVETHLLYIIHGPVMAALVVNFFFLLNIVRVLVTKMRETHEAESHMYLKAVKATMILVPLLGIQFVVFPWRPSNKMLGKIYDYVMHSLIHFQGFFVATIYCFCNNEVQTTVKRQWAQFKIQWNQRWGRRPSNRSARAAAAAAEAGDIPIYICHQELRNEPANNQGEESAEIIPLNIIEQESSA
T1 sequence (looked up) 2: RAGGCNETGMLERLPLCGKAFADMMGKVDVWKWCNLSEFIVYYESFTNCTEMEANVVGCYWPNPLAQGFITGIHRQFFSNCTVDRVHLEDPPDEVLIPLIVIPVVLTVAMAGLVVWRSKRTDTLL

T2: human calcitonin (a) receptor (human, UniProt P30988 25-474)
T2 sequence (looked up): T1 sequence (looked up) 1

B1: N-alpha-[(S)-4-Carboxy-4-(19-carboxynonadecanoylamino)butyryl]-[Glu14,His17,Arg35]-pramlintide (peptide)
peptide: {C20 diacid-γGlu}-KCNTATCATQRLAEFLHHSSNNFGPILPPTNVGSRTY-NH2
modifications: disulfide 2-7
SMILES: CC[C@H](C)[C@H](NC(=O)[C@@H]1CCCN1C(=O)CNC(=O)[C@H](Cc1ccccc1)NC(=O)[C@H](CC(N)=O)NC(=O)[C@H](CC(N)=O)NC(=O)[C@H](CO)NC(=O)[C@H](CO)NC(=O)[C@H](Cc1c[nH]cn1)NC(=O)[C@H](Cc1c[nH]cn1)NC(=O)[C@H](CC(C)C)NC(=O)[C@H](Cc1ccccc1)NC(=O)[C@H](CCC(=O)O)NC(=O)[C@H](C)NC(=O)[C@H](CC(C)C)NC(=O)[C@H](CCCNC(=N)N)NC(=O)[C@H](CCC(N)=O)NC(=O)[C@@H](NC(=O)[C@H](C)NC(=O)[C@@H]1CSSC[C@H](NC(=O)[C@H](CCCCN)NC(=O)CC[C@H](NC(=O)CCCCCCCCCCCCCCCCCCC(=O)O)C(=O)O)C(=O)N[C@@H](CC(N)=O)C(=O)N[C@@H]([C@@H](C)O)C(=O)N[C@@H](C)C(=O)N[C@@H]([C@@H](C)O)C(=O)N1)[C@@H](C)O)C(=O)N[C@@H](CC(C)C)C(=O)N1CCC[C@H]1C(=O)N1CCC[C@H]1C(=O)N[C@H](C(=O)N[C@@H](CC(N)=O)C(=O)N[C@H](C(=O)NCC(=O)N[C@@H](CO)C(=O)N[C@@H](CCCNC(=N)N)C(=O)N[C@H](C(=O)N[C@@H](Cc1ccc(O)cc1)C(N)=O)[C@@H](C)O)C(C)C)[C@@H](C)O
B2: N-alpha-[(S)-4-Carboxy-4-(19-carboxynonadecanoylamino)butyryl]-[His1,Glu14,Arg17,Ser21,Ser28,Ser29,His35]-pramlintide (peptide)
peptide: X1-HCNTATCATQRLAEFLRHSSSNFGPILSSTNVGSHTY-NH2
modifications: disulfide 2-7
SMILES: CC[C@H](C)[C@H](NC(=O)[C@@H]1CCCN1C(=O)CNC(=O)[C@H](Cc1ccccc1)NC(=O)[C@H](CC(N)=O)NC(=O)[C@H](CO)NC(=O)[C@H](CO)NC(=O)[C@H](CO)NC(=O)[C@H](Cc1c[nH]cn1)NC(=O)[C@H](CCCNC(=N)N)NC(=O)[C@H](CC(C)C)NC(=O)[C@H](Cc1ccccc1)NC(=O)[C@H](CCC(=O)O)NC(=O)[C@H](C)NC(=O)[C@H](CC(C)C)NC(=O)[C@H](CCCNC(=N)N)NC(=O)[C@H](CCC(N)=O)NC(=O)[C@@H](NC(=O)[C@H](C)NC(=O)[C@@H]1CSSC[C@H](NC(=O)[C@H](Cc2c[nH]cn2)NC(=O)CC[C@H](NC(=O)CCCCCCCCCCCCCCCCCCC(=O)O)C(=O)O)C(=O)N[C@@H](CC(N)=O)C(=O)N[C@@H]([C@@H](C)O)C(=O)N[C@@H](C)C(=O)N[C@@H]([C@@H](C)O)C(=O)N1)[C@@H](C)O)C(=O)N[C@@H](CC(C)C)C(=O)N[C@@H](CO)C(=O)N[C@@H](CO)C(=O)N[C@H](C(=O)N[C@@H](CC(N)=O)C(=O)N[C@H](C(=O)NCC(=O)N[C@@H](CO)C(=O)N[C@@H](Cc1c[nH]cn1)C(=O)N[C@H](C(=O)N[C@@H](Cc1ccc(O)cc1)C(N)=O)[C@@H](C)O)C(C)C)[C@@H](C)O
B3: N-alpha-[(S)-4-Carboxy-4-(19-carboxynonadecanoylamino)butyryl]-[His1,Glu14,Ser21,Ser28,Ser29,His35]-pramlintide (peptide)
peptide: {C20 diacid-γGlu}-HCNTATCATQRLAEFLVHSSSNFGPILSSTNVGSHTY-NH2
modifications: disulfide 2-7
SMILES: CC[C@H](C)[C@H](NC(=O)[C@@H]1CCCN1C(=O)CNC(=O)[C@H](Cc1ccccc1)NC(=O)[C@H](CC(N)=O)NC(=O)[C@H](CO)NC(=O)[C@H](CO)NC(=O)[C@H](CO)NC(=O)[C@H](Cc1c[nH]cn1)NC(=O)[C@@H](NC(=O)[C@H](CC(C)C)NC(=O)[C@H](Cc1ccccc1)NC(=O)[C@H](CCC(=O)O)NC(=O)[C@H](C)NC(=O)[C@H](CC(C)C)NC(=O)[C@H](CCCNC(=N)N)NC(=O)[C@H](CCC(N)=O)NC(=O)[C@@H](NC(=O)[C@H](C)NC(=O)[C@@H]1CSSC[C@H](NC(=O)[C@H](Cc2c[nH]cn2)NC(=O)CC[C@H](NC(=O)CCCCCCCCCCCCCCCCCCC(=O)O)C(=O)O)C(=O)N[C@@H](CC(N)=O)C(=O)N[C@@H]([C@@H](C)O)C(=O)N[C@@H](C)C(=O)N[C@@H]([C@@H](C)O)C(=O)N1)[C@@H](C)O)C(C)C)C(=O)N[C@@H](CC(C)C)C(=O)N[C@@H](CO)C(=O)N[C@@H](CO)C(=O)N[C@H](C(=O)N[C@@H](CC(N)=O)C(=O)N[C@H](C(=O)NCC(=O)N[C@@H](CO)C(=O)N[C@@H](Cc1c[nH]cn1)C(=O)N[C@H](C(=O)N[C@@H](Cc1ccc(O)cc1)C(N)=O)[C@@H](C)O)C(C)C)[C@@H](C)O
B4: N-alpha-[(S)-4-Carboxy-4-(19-carboxynonadecanoylamino)butyryl]-[Glu14,His17,His36]-pramlintide (peptide)
peptide: {C20 diacid-γGlu}-KCNTATCATQRLAEFLHHSSNNFGPILPPTNVGSNHY-NH2
modifications: disulfide 2-7; not fully specified; printed as N-alpha-[(S)-4-Carboxy-4-(19-carboxynonadecanoylamino)butyryl]-[Glu14,His17,His36]-pramlintide
B5: N-alpha-[(S)-4-Carboxy-4-(19-carboxynonadecanoylamino)butyryl]-[Glu14,His17,Lys35]-pramlintide (peptide)
peptide: {C20 diacid-γGlu}-KCNTATCATQRLAEFLHHSSNNFGPILPPTNVGSKTY-NH2
modifications: disulfide 2-7; not fully specified; printed as N-alpha-[(S)-4-Carboxy-4-(19-carboxynonadecanoylamino)butyryl]-[Glu14,His17,Lys35]-pramlintide
B6: N-alpha-[(S)-4-Carboxy-4-(19-carboxynonadecanoylamino)butyryl]-[Glu14,His17,His34]-pramlintide (peptide)
peptide: {C20 diacid-γGlu}-KCNTATCATQRLAEFLHHSSNNFGPILPPTNVGHNTY-NH2
modifications: disulfide 2-7
SMILES: CC[C@H](C)[C@H](NC(=O)[C@@H]1CCCN1C(=O)CNC(=O)[C@H](Cc1ccccc1)NC(=O)[C@H](CC(N)=O)NC(=O)[C@H](CC(N)=O)NC(=O)[C@H](CO)NC(=O)[C@H](CO)NC(=O)[C@H](Cc1c[nH]cn1)NC(=O)[C@H](Cc1c[nH]cn1)NC(=O)[C@H](CC(C)C)NC(=O)[C@H](Cc1ccccc1)NC(=O)[C@H](CCC(=O)O)NC(=O)[C@H](C)NC(=O)[C@H](CC(C)C)NC(=O)[C@H](CCCNC(=N)N)NC(=O)[C@H](CCC(N)=O)NC(=O)[C@@H](NC(=O)[C@H](C)NC(=O)[C@@H]1CSSC[C@H](NC(=O)[C@H](CCCCN)NC(=O)CC[C@H](NC(=O)CCCCCCCCCCCCCCCCCCC(=O)O)C(=O)O)C(=O)N[C@@H](CC(N)=O)C(=O)N[C@@H]([C@@H](C)O)C(=O)N[C@@H](C)C(=O)N[C@@H]([C@@H](C)O)C(=O)N1)[C@@H](C)O)C(=O)N[C@@H](CC(C)C)C(=O)N1CCC[C@H]1C(=O)N1CCC[C@H]1C(=O)N[C@H](C(=O)N[C@@H](CC(N)=O)C(=O)N[C@H](C(=O)NCC(=O)N[C@@H](Cc1c[nH]cn1)C(=O)N[C@@H](CC(N)=O)C(=O)N[C@H](C(=O)N[C@@H](Cc1ccc(O)cc1)C(N)=O)[C@@H](C)O)C(C)C)[C@@H](C)O
B7: N-alpha-[(S)-4-Carboxy-4-(19-carboxynonadecanoylamino)butyryl]-[Glu14,His17,His32]-pramlintide (peptide)
peptide: {C20 diacid-γGlu}-KCNTATCATQRLAEFLHHSSNNFGPILPPTNHGSNTY-NH2
modifications: disulfide 2-7
SMILES: CC[C@H](C)[C@H](NC(=O)[C@@H]1CCCN1C(=O)CNC(=O)[C@H](Cc1ccccc1)NC(=O)[C@H](CC(N)=O)NC(=O)[C@H](CC(N)=O)NC(=O)[C@H](CO)NC(=O)[C@H](CO)NC(=O)[C@H](Cc1c[nH]cn1)NC(=O)[C@H](Cc1c[nH]cn1)NC(=O)[C@H](CC(C)C)NC(=O)[C@H](Cc1ccccc1)NC(=O)[C@H](CCC(=O)O)NC(=O)[C@H](C)NC(=O)[C@H](CC(C)C)NC(=O)[C@H](CCCNC(=N)N)NC(=O)[C@H](CCC(N)=O)NC(=O)[C@@H](NC(=O)[C@H](C)NC(=O)[C@@H]1CSSC[C@H](NC(=O)[C@H](CCCCN)NC(=O)CC[C@H](NC(=O)CCCCCCCCCCCCCCCCCCC(=O)O)C(=O)O)C(=O)N[C@@H](CC(N)=O)C(=O)N[C@@H]([C@@H](C)O)C(=O)N[C@@H](C)C(=O)N[C@@H]([C@@H](C)O)C(=O)N1)[C@@H](C)O)C(=O)N[C@@H](CC(C)C)C(=O)N1CCC[C@H]1C(=O)N1CCC[C@H]1C(=O)N[C@H](C(=O)N[C@@H](CC(N)=O)C(=O)N[C@@H](Cc1c[nH]cn1)C(=O)NCC(=O)N[C@@H](CO)C(=O)N[C@@H](CC(N)=O)C(=O)N[C@H](C(=O)N[C@@H](Cc1ccc(O)cc1)C(N)=O)[C@@H](C)O)[C@@H](C)O

The binders below were run against T1, human amylin 3(a) receptor (human …) (assay: cell-based or functional assay).

| Amylin receptor human EC50 [nM] | Binder |
| --- | --- |
| 0.098 | B1 |
| 0.394 | B2 |
| 0.921 | B3 |
| 0.382 | B4 |
| 0.134 | B5 |
| 0.129 | B6 |
| 0.487 | B7 |

These binders were tested against T2, human calcitonin (a) receptor (assay: cell-based or functional assay).

| CTa receptor human EC50 [nM] | Binder |
| --- | --- |
| 0.104 | B1 |
| 0.57 | B2 |
| 0.349 | B3 |
| 0.113 | B4 |
| 0.13 | B5 |
| 0.115 | B6 |
| 0.124 | B7 |

From patent US20130005646A1 (Novo Nordisk, published 2013)
